Targets include Cathepsin V, O60911; DPP7, Q9UHL4; Ataxin3, P54252.
Holding throughout (assay): cell-based or functional assay
The next assay deals with T1, Caspase-6, P55212.
T1 chain: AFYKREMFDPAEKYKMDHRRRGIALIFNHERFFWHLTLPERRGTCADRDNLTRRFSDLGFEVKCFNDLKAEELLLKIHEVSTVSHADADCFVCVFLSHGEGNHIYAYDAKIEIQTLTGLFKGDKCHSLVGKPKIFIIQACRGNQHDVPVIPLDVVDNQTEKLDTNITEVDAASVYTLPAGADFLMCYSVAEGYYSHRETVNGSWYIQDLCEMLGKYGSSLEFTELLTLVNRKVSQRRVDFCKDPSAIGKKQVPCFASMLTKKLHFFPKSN

In assay [1] the target is Activated Protein C, P04070.
Assay [2] concerns the target T2, Ubiquitin carboxyl-terminal hydrolase 8, P40818.
T2 chain: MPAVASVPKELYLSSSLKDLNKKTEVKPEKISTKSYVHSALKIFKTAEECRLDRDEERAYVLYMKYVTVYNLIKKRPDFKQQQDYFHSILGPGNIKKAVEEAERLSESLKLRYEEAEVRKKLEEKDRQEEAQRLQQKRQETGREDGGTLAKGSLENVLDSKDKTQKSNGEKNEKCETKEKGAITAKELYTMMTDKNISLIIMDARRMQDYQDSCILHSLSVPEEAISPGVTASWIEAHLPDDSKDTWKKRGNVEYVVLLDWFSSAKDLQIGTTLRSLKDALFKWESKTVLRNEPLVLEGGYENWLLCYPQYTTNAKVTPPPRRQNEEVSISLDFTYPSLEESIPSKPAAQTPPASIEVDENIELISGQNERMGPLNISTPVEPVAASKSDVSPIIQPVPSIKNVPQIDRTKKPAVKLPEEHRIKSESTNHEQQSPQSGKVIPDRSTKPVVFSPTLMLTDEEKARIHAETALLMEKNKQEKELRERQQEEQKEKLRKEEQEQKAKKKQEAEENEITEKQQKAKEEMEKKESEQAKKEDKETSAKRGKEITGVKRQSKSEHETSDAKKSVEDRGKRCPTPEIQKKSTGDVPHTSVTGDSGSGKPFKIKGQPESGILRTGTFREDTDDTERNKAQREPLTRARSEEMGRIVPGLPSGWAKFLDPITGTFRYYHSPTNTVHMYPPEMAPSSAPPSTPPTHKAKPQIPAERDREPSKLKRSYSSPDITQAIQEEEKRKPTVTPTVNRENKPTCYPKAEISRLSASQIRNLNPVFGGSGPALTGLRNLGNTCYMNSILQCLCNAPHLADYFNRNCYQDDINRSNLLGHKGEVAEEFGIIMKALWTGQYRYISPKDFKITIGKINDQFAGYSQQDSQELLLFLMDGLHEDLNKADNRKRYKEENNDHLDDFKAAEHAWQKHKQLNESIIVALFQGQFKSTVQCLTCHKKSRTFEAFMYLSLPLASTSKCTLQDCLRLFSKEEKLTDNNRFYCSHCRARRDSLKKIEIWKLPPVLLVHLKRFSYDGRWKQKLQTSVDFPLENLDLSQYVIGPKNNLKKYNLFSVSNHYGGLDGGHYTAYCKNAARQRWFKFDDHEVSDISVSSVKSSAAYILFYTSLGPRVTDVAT

In a further assay the target is T3, Caspase-3, P42574.
T3 chain: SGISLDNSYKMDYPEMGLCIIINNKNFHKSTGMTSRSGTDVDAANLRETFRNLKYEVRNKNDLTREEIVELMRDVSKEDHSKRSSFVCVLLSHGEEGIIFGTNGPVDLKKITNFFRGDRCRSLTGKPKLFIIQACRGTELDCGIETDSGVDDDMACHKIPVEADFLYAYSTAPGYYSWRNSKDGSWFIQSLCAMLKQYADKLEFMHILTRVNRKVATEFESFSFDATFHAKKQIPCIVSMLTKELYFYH

Assay [3] concerns the target T4, Ubiquitin carboxy-terminal hydrolase L3, P15374.
T4 chain: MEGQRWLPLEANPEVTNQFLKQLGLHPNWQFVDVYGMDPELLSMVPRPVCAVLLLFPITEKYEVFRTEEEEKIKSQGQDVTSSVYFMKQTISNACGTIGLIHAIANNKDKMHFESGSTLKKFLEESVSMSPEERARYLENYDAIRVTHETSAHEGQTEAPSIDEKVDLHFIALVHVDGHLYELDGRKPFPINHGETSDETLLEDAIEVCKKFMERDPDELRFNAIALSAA

Assay [4] has as its target Ubiquitin carboxyl-terminal hydrolase 7, Q93009.
The target of assay [5] is T5, Deubiquitinase OTUD6B, Q8N6M0.
T5 chain: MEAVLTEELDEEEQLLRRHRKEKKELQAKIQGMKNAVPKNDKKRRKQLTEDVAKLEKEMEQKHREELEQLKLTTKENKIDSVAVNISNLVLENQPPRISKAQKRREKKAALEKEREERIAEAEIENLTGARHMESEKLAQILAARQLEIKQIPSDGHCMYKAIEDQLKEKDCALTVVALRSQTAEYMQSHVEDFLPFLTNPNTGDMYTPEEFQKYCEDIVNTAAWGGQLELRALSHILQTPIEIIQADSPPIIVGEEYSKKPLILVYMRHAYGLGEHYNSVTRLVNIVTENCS

Assay [6] addresses FAP (protease specificity screen, BPS Biosciences), Q12884.

Bridge positions count the residues as written; N and C are the ends.

Chain of Ataxin3, P54252 (P54252 whole entry): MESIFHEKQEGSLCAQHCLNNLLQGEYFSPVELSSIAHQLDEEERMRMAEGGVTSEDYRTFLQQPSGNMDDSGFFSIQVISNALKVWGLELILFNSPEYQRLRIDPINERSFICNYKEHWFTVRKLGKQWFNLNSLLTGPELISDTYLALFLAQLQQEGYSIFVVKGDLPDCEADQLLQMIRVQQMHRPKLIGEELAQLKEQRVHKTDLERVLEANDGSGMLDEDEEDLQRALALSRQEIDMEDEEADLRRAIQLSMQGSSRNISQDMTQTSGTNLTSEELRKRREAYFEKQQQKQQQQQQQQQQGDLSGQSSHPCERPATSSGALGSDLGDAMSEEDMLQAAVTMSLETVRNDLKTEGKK
Chain of Ubiquitin carboxyl-terminal hydrolase 7, Q93009 (Q93009 whole entry): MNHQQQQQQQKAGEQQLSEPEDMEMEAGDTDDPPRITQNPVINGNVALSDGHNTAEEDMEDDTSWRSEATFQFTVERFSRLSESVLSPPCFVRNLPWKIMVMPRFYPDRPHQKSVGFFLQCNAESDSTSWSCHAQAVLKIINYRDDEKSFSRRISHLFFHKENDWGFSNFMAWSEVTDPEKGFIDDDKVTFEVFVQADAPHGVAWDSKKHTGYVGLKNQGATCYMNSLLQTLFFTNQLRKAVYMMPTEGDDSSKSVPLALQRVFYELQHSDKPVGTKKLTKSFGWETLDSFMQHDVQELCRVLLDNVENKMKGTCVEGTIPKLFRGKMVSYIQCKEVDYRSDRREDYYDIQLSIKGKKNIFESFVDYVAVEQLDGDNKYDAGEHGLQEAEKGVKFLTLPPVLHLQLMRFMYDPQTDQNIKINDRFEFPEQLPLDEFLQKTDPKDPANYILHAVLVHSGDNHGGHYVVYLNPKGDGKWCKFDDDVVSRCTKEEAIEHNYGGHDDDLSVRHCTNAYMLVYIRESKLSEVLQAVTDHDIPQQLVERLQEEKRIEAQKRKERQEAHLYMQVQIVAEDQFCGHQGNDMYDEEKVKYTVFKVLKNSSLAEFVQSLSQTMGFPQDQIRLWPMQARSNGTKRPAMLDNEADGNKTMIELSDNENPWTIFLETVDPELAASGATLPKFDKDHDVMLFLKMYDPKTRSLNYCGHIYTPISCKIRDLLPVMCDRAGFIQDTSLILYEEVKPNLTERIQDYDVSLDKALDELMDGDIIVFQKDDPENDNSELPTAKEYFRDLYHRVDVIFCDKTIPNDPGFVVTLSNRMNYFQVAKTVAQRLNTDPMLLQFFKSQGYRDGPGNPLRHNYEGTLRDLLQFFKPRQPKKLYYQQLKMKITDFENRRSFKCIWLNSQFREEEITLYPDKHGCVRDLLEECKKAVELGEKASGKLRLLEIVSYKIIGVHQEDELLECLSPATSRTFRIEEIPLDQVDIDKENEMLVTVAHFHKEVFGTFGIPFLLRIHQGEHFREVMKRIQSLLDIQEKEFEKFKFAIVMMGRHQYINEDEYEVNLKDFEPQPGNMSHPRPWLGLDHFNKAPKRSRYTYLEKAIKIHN
Chain of Cathepsin V, O60911 (O60911 114-334 limits assumed): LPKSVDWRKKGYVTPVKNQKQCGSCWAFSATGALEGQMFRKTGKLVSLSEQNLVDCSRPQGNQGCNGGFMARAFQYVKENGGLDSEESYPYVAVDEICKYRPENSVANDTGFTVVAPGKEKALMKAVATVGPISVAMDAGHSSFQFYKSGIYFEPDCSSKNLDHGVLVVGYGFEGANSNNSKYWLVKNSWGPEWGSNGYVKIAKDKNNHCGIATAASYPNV
Chain of FAP (protease specificity screen, BPS Biosciences), Q12884 (Q12884 27-760 limits assumed): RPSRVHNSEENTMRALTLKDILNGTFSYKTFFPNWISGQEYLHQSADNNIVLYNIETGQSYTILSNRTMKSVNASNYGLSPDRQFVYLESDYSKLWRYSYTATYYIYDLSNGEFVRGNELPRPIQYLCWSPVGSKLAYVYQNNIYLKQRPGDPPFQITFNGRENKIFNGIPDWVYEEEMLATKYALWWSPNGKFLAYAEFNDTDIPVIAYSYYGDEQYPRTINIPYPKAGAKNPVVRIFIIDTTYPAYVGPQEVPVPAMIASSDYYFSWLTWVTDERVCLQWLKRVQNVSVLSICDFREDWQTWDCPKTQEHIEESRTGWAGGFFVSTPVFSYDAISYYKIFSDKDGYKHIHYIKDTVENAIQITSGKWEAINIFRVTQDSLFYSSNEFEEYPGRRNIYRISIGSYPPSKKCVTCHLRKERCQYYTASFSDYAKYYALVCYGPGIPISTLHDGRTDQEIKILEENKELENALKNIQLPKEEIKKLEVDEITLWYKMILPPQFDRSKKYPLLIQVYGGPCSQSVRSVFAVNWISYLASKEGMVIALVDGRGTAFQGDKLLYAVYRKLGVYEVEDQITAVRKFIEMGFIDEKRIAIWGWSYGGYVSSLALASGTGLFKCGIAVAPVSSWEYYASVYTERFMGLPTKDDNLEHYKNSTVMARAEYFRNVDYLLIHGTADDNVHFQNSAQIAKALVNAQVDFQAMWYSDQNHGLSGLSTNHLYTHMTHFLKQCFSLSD

B1: Hex-[Cys(tMeBn(DOTA-AET))-Pro-Pro-Thr-Gln-Phe-Cys]-OH (peptide)
peptide: Hex-CPPTQFC-OH
modifications: bridge 1-7; not fully specified (bridges); printed as Hex-[Cys(tMeBn(DOTA-AET))-Pro-Pro-Thr-Gln-Phe-Cys]-OH
Consider B1, for which the Percentage inhibition (%) at 1 µM with Cathepsin V, O60911 was -1%; with Caspase-6, P55212 it was 6%; with DPP7, Q9UHL4, -1%; in assay [1], -11%; in [2], 2%; with Caspase-3, P42574 it was -2%. For the same molecule, the Percentage inhibition (%) at 1 µM in [3] turned out to be 0%; in [4] it was 1%; in [5], 0%; in assay [6], 97%; with Ataxin3, P54252 it was 2%. For the same molecule, the Percentage inhibition (%) at 10 µM with Cathepsin V, O60911 is -1%; with Caspase-6, P55212, -3%; with DPP7, Q9UHL4, -7%; in assay [1] it was 1%; in [2], 1%; with Caspase-3, P42574, -1%. Moreover, the Percentage inhibition (%) at 10 µM in assay [3] is 0%; in assay [4] it was 1%; in assay [5] it was 0%; in [6], 99%; with Ataxin3, P54252, -1%.

B2: Hex-[Cys(tMeBn(DOTA-PP))-Pro-Pro-Thr-Gln-Phe-Cys]-Asp-NH2 (peptide)
peptide: Hex-CPPTQFCD-NH2
modifications: bridge 1-7; not fully specified (bridges); printed as Hex-[Cys(tMeBn(DOTA-PP))-Pro-Pro-Thr-Gln-Phe-Cys]-Asp-NH2
B2: the Percentage inhibition (%) at 1 µM with Cathepsin V, O60911 is 1%; with Caspase-6, P55212, 1%; with DPP7, Q9UHL4 it was 2%; in assay [1], 5%; in assay [2], -3%; with Caspase-3, P42574 it was 1%. Further, the Percentage inhibition (%) at 1 µM in [3] is -1%; in assay [4], 5%; in assay [5], 2%; in assay [6] it was 98%; with Ataxin3, P54252, 1%. The Percentage inhibition (%) at 10 µM in the assay with Cathepsin V, O60911 was -18%; with Caspase-6, P55212 it was -1%; with DPP7, Q9UHL4, -3%; in assay [1], 8%; in assay [2], 6%; in the assay with Caspase-3, P42574, -2%. Also, the Percentage inhibition (%) at 10 µM in assay [3] worked out at 14%; in assay [4], 5%; in assay [5], 15%; in [6], 99%; with Ataxin3, P54252 it was 10%.

The values are drawn from patent US20230212549A1, “COMPOUNDS COMPRISING A […] LIGAND AND USE THEREOF” (priority 2021, published 2023).
